Test results: the nanobody polyreactivity screen of Harvey et al. (2022)

Test: yeast display, Sf9 membrane polyspecificity reagent, FACS + sequencing; frameworks hold sequencing errors
Outline: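 After 36–48 hours of galactose induction, yeast (Saccharomyces cerevisiae BJ5465) displaying a synthetic nanobody library were stained at 4 °C for 1 hour with 10% biotinylated, detergent-solubilized Sf9 membrane reagent. Streptavidin microbeads enriched the stained cells before FACS sorting into low and high (top ~1%) gates on anti-HA and streptavidin fluorescence. Each clone's polyreactivity label reflects its gate of origin.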

Row | Sequence | polyreactivity (PSR sort gate)
1 | QVQLVESGGGLVQAGGSLRLSCAASGRTFVYYAMGRYRQAPGKERELVAAISGSGGSTYYADSVKGRFTISRDNAKNTVYLQMISLKPEDTAVYYCAAGPRGRYRYGYWGQGTQVTVSS | high polyreactivity
2 | QVQLVESGGGLVQAGGSLRLSCAASGRTFVYYAMGWYRPAPGKERELVAAISRSGSTYYADSVKGRFTISRDNAKNTVYLQMNSLKPEDTAVYYCARPGGPDRTSSPYPYPYGYWGQGTQVTVSS | low polyreactivity
3 | QVQLVESGGGLVQAGGSLRLSCAASGRTFVYYAMGWYRQAPGKEREFVAAISRSGGHTSYADSVKGRFTISRDNAKNTVYLQMNSLKPEDTAVYYCAAEKRTQPTSREYYWGQGTQVTVSS | high polyreactivity
4 | QVQLVESGGGLVQAGGSLRLSCAASGRTFVYYAMGWYRQAPGKEREFVAAISRSGGRTSYADSVKGRFTISRDKAKNTVYLQMNSLKPEDTAVYYCAAKVRQWRQGSYSSQYDYWGQGTQVTVSS | high polyreactivity
5 | QVQLVESGGGLVQAGGSLRLSCAASGRTFVYYAMGWYRQAPGKERELVAAIRSGGSTNYADSVKGLFSISRDTAKNTVSLQMNSLKPEDTSVYYCNAVHYYYYKGDYWGQGTQVTVSS | high polyreactivity
6 | QVQLVESGGGLVQAGGSLRLSCAASGRTFVYYAMGWYRQAPGKERELVAAISSRGGSTYYADSVKGRFTISRDYAKNTVYLQMNSLKPEDTAVYYCAARARRRYYYWGQGTQVTVSA | high polyreactivity
7 | QVQLVESGGGLVQAGGSLRLSCAASGRTFVYYAMGWYRQAPGKERELVAAISTGGSTNYADSVKGRFTISRDNAKNTVYLQMNSLKPEDTAVYYCAAQYYISISKYDYWGQGTQVTVSS | low polyreactivity
8 | QVQLVESGGGLVQAGGSLRLSCAASGRTFVYYAMGWYRQAPGNERELVASISSGAGSPNYADSVKGRYTISRDNAKNTGYVQMNSLKPEDTAVYYCAVDTPRYRYYRTSYDYWRQGTQVTVSS | low polyreactivity
9 | QVQLVESGGGLVQAGGSLRLSCAASGRTFWANAMGWYRQAPGKERELVAAITIGGRTYYADSVKGRFTISRDNAKNTVYIQMNSLKPEDTAVYYCNAGSRRPFPAESGYWGQGTQVTVSS | low polyreactivity
10 | QVQLVESGGGLVQAGGSLRLSCAASGRTFWANAMGWYRQAPGKERELVAAITSGGSTNYADSVKGRFTISRDNAKNTVYLQMNSLKPEDTAVYYCAAAINRYRRTFNYWGQGTQVTVSS | high polyreactivity
11 | QVQLVESGGGLVQAGGSLRLSCAASGRTFWDYGMGWYRQAPGKERELVPTISGNGGDTYYADSVKGRFTISRDNAKNTVYLQMNSLKPEDTAVYFCAADYRFYRTDRHYDYWGQGTQVTVSS | low polyreactivity
12 | QVQLVESGGGLVQAGGSLRLSCAASGRTFWDYMGWYRQAPGKERELVATITSSGGSTYYADSVKGRFTISRDNAKNTVYLQMNSLKPEDTAVYYCNADWYLWSTFAQGYGYWGQGTQVTVSS | high polyreactivity
13 | QVQLVESGGGLVQAGGSLRLSCAASGRTFWFYSMAWYRQAPGKERELVATINYRGGTTYYADSVKGRFTISRDNAKNTVYLQMNSLKPEDTAVYYCAVRPTRTFIYDYWGQGTQVTVSS | high polyreactivity
14 | QVQLVESGGGLVQAGGSLRLSCAASGRTFWGYAMGWYRQAPGKERELVAAISLSGGRTNYADSVKGRFTISRDNAKNTVYLQMNSLKPEDTAVYYCAADKRPDGRMDYWGQGTQVTVSS | high polyreactivity
15 | QVQLVESGGGLVQAGGSLRLSCAASGRTFWGYAMGWYRQAPGKERELVATISSTGSTNYADSVKGRFTISRDNAKNPVYLQMNSLKPEDTAVYYCNAKRHLYRGWYQRYDYWGQGTQVTVSS | high polyreactivity
16 | QVQLVESGGGLVQAGGSLRLSCAASGRTFWKNTMGWYRQAPGKERELVAVISSGGVSTSYADSVKGRFTISRDNAKNTVYLQMNSLKPEDTAVYYCAADGYYIGPYDYWGQGTQVTVSS | low polyreactivity
17 | QVQLVESGGGLVQAGGSLRLSCAASGRTFWKYAMGWYRQAPGKERELVAAITASGARTYYADSVKGRFTISRDNAKNTVYLQLNSLKPEDTAVYYCNAGSVSDRQMDYWGQGTQVTVSS | low polyreactivity
18 | QVQLVESGGGLVQAGGSLRLSCAASGRTFWKYVMGWYRQAPGKEREVVAVISRPAGSTYYADSVKGRFTISRDNAKNTVYLQMNSLKPEETAVYYCNKPGGQSLGGYNYWVQGTQVTVSS | low polyreactivity
19 | QVQLVESGGGLVQAGGSLRLSCAASGRTFWLYAMGWYRQATGKERELVAGISRGGRTYYADSVKGRFTISRDNAKNTVYLQMNSLKPEDTAVYYGAADRYTVRMDCWGQGTQVTVSS | high polyreactivity
20 | QVQLVESGGGLVQAGGSLRLSCAASGRTFWNAMGWYRQAPGKERELVATITSGGITNYADSVKGRFTISRDNAKNTVYLQMNSLKPEDTAVYYCAARPYSWRNYRPSDYWGQGTQVTVSS | high polyreactivity
21 | QVQLVESGGGLVQAGGSLRLSCAASGRTFWNYAMGWYRQAPGKERELVAAIRSSGGRTYYADSVKGRFTISRDNAKNTVYLQMNSLKPEDTAVYYCAAYGFIEGIGTYDYWGQGTQVTVSS | high polyreactivity
22 | QVQLVESGGGLVQAGGSLRLSCAASGRTFWPNVMGWYRQAPGKERELVAAITWGDASTYYADSVKGRFTISRDNAKNTVYLQMNSLKPEDTAVYYCAASDYGRTYDYWGQGTQVTVSS | low polyreactivity

Row | Sequence | polyreactivity (PSR sort gate)
23 | QVQLVESGGGLVQAGGSLRLSCAASGRTFWQYAMGWYRQAPGKERELVAAIRYSGGSTYYADSVKGRFTISRDNAKNTVYLQMNSLKPEDTAVYYCAKRLKPGFYYWGQGTQVTVSS | high polyreactivity
24 | QVQLVESGGGLVQAGGSLRLSCAASGRTFWRYAMGWYIQAPGKERELVAAISSSGITYYADSVKGRFTISRDNAKNTVYLQMNSLKPEDTAVYYCAVRWGRGFWGQGTQVTVSS | high polyreactivity
25 | QVQLVESGGGLVQAGGSLRLSCAASGRTFWRYAMGWYRQAPGKERELVARISSGGSTYYADSVKGRFTISRDNAKNTVYLQINSLKPEDTAVYYCAVLSRHRRVPWYRYNYWGQGTQVTVSS | low polyreactivity
26 | QVQLVESGGGLVQAGGSLRLSCAASGRTFWRYAMGWYRQAPGKERELVARISWRGGSTNYADSVKGRFTISRDNAKITVYVQMNSLKAEDTAVYYCAADNSRYFLTGYDYWGQGTQVTVSS | low polyreactivity
27 | QVQLVESGGGLVQAGGSLRLSCAASGRTFWSNAMGWYIQAPGKERELVAVIYTTTGNTYYADSVKGRFSISRDYAKNTVYLQMNSLKPEDTAVYYCNTRSGAFFLSKPYDYWGQGTQVTVSW | low polyreactivity
28 | QVQLVESGGGLVQAGGSLRLSCAASGRTFWSNAMGWYRQAPGKERELVADITLSGGRTYYADSVKGRFTISRDNAKNTVYLHMNILKPEDTAVYYCAASATPSGVGMDYWGQGTQVTVSS | low polyreactivity
29 | QVQLVESGGGLVQAGGSLRLSCAASGRTFWSNAMGWYRQAPGKERELVATISSGGGNTYYADSVKGRFTISRDNAKNTVYLQLNSLKPEDTAVYYCAATKYRWTYAASFGYWGQGTQVTVSS | high polyreactivity
30 | QVQLVESGGGLVQAGGSLRLSCAASGRTFWSNGMGWYRQAPGKERELVASISTSGGRTYYADSVKGRFTISRDNAKNTVYLQMNSLKPEDSAVYYCAARTVYRGRAYDYWGQGTQVTVSS | high polyreactivity
31 | QVQLVESGGGLVQAGGSLRLSCAASGRTFWSYAMGWYRQAPGKERELVAAITSSGGTTNYADSVKGRFTISRDNAKNTVYLQMNSLKPEDTAVYYCAAYSWYFGSRYDYWGQGTQVTVSS | low polyreactivity
32 | QVQLVESGGGLVQAGGSLRLSCAASGRTFWTNAMGWYRQAPGKERELVAAISWTTGSTNYADSVKGRFTISRDNAKNTVYLQMNSLKPEDTAVYYCAAQTYCTFHTYYYWGQGTQVTVSS | low polyreactivity
33 | QVQLVESGGGLVQAGGSLRLSCAASGRTFWVYAMGWYRQAPGKERELVAGISWDDGSTDYADSVKGRFTISRDNAKNTVYLQMNSLKPEDTAVYYCNAGEYYKGYYYWGQGTQVTVSS | low polyreactivity
34 | QVQLVESGGGLVQAGGSLRLSCAASGRTFWVYAMGWYRQAPGKERELVASISWSVGSTYYADSVKGRFTISRDNAKNTVYLQMNSLKPEDTAVYYCNKTTLLTVEYDYWGQGSQVTVSS | low polyreactivity
35 | QVQLVESGGGLVQAGGSLRLSCAASGRTFWWNAMAWYTQAPGKERELVAVISKRGGTTYYADSVKGRFTNSRDNAKNTVYLPMNSLKPEDTAVYVFAADQQSHYGYWGQGTQVTVSS | high polyreactivity
36 | QVQLVESGGGLVQAGGSLRLSCAASGRTFWWYAMGWYRQAPGKERELVAAITWSTGITFYADSVKGRFTISRDNAKNTVYLQMNILKPEDTAVYYCAADTGTFFGGFDYWGQGTQVTVSS | high polyreactivity
37 | QVQLVESGGGLVQAGGSLRLSCAASGRTFWWYAMGWYRQAPGKERELVADINGSGGSTYYADSVKGRFTISRDNAKHTVYLQMNSLKPEDTAVYYCAADYYRYIHSVVYSIYDYWGQGTQVTVSS | low polyreactivity
38 | QVQLVESGGGLVQAGGSLRLSCAASGRTFWWYAMGWYRQEPGKERELVAAITWSGGSTYYADSVKGRFTISRDNAKNTVYLQMNSLKPEDTAVYYCAAYVHNKYDYWGQGTQVTVSS | low polyreactivity
39 | QVQLVESGGGLVQAGGSLRLSCAASGRTFWYYAMGGYRQAPGKERELVAYADSVKGRFTISRDNAKNTVYLQMNSLKPEDTAVYYCAVGPVVWFSSSLYYTDYYYWGQGTQVTVSS | low polyreactivity
40 | QVQLVESGGGLVQAGGSLRLSCAASGRTFWYYAMGWNRQAPGKERELVAAITRGTSTYADSVKGRFTISRDNAKNTVYLQMNSLKPEDTAVFYCAADTWVTRNSRYDYWGQGTQVTVSS | high polyreactivity
41 | QVQLVESGGGLVQAGGSLRLSCAASGRTFWYYAMGWYRQAPGKEREFVAAISWSGGSTYYADSVKGRFTISRDNAKNTVYLQMNTLKPEDSAVYYCAASPVWWYDYWGQGTQVTVSS | low polyreactivity
42 | QVQLVESGGGLVQAGGSLRLSCAASGRTFWYYTMGWYRQAPGKERELVAAISSGGRTNYADSVKGRFTISRDNAKITVYLQMNSLKPEDTAVYYCATSRYYKYVERDYWGQGTQVTVSS | high polyreactivity
43 | QVQLVESGGGLVQAGGSLRLSCAASGRTFWYYTMGWYRQAPGKERELVAANTSVGSTYYADSVKGRFTISRDNAKNTVYLQMNSLKPEDTAVYYCATLYSYTHQSFDHWGQGTQVTVSS | high polyreactivity
